Reference: the RNAGym collection of RNA variant scans (doi:10.1073/pnas.2313332121)

B1: TPR t1 (parent)
chain: GACCAAUCUGCCCUCAGAGCUCGAGAACAUCUUCGGAUGCAGAGGAGGCAGGCUUCGGUGGCGCGAUAGCGCCAACGUCCUCAACCUCCAAUGCAUCCCACCACAUGAUGAUGCCUGAAGAGCCUUGGUUUUUUG

Variants of: B1
Test: polymerase ribozyme fitness, log enrichment relative to wild type (log ratio); higher = more active; in vitro selection for triplet polymerase activity
How it was run: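 To select mutant libraries of each subunit of a heterodimeric triplet polymerase ribozyme, built by PCR and transcribed, each was annealed with a biotinylated primer, partner subunit and triplets, then incubated frozen at −7 °C. Extended constructs were gel-excised, captured on streptavidin beads and amplified by RT-PCR, in one round carried out in triplicate. Illumina sequencing of input and output libraries kept genotypes with ≥10 input reads and ≥1 read per output. Fitness is the base-2 logarithm of genotype enrichment relative to wild-type enrichment, from inverse-variance-weighted replicate averages.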

Point of comparison: GACCGAUCGGCACUCAGAGCUCGAGAACAUCUUCGGAUGCAGAGGAGGCAGGCUUCGGUGGCGCGAUAGCGCCAACGCCCUCAACCUCCAAUACAUCCCACCACAUGAUGAUGCCUGAAGAGCCUUGGUUUUUUG [A5G U9G C12A U78C G93A], “polymerase ribozyme fitness (log ratio)” value -0.124. Against it:
- GACCAAUCUGCCCUCAGAGCUCGAGAACAUCUUCGGAUGCAGAGGAGGCAGGCUUCGGGGUCGCGAUAGCGCCAACGUCCUCAACCUCCAAUGCAUCCCACCACAUGAUGAUGCCUGAAGAGCCUUGGUUUUUUG [U59G G61U] — lower, -0.648
- GACCAAUCUGCCCUCAGAGCUCGAGAACAUCUUCGGAUGCAAAGGAGGCAGGCUUCGGUGGCGCGAUAGCGCCAACGUCCUCAACCGCCAAUGCAUCCCACCACAUGAUGAUGCCUGAAGAGCCUUGGUUUUUUG [G42A U87G] — lower, -1.65
- GACCAAUCUGCCCUCAGAGCUCGAGAACAUCUUCGGAUGCAGAGGAGGCAGGCUUCGGUGGCGCGAUAGCGCCAACGCCCUCAACCUCCAAUGCAUCCCACCACAUGAUGAUGCCUGAAGAGCCUUGGUUUUUUA [U78C G135A] — lower, -1.44
- GACCAAUCUGCCCUCAGAGCUCGAGAACAUCUUCGGAUGCGGAGGAGGCAGGCUUCGGUGGCGAGAUAGCGCCAACGUCCUCAACCUCCAAUGCAUCCCACCACAUGAUGAUGCCUGAAGAGCCUUGGUUUUUUG [A41G C64A] — lower, -7.34
- GACCAAUCUGCCCUCAGAGCUCGAGAACAUCUUCGGAUGCAGAGGAGGCAGGCUUCGGCGGCACGAUAUCGCCAACGUCCUCAACCUCCAAUGCAUCCCACCACAUGAUGAUGCCUGAAGAGCCUUGGUUUUUUG [U59C G63A G69U] — lower, -5.13
- GACCAAUCUGCCCUCAGAGCUCGAGUACAUCUUCGGAUGCAGAGGAGGCAGGAUUCGGUGGCGCGAUAGCGCCAACGACCUCAACCUCCAAUGCAUCCCACCACAUGAUAAUGCCUGAAGAGCCUUGGUUUUUUG [A26U C53A U78A G110A] — lower, -5.05
- GACCAAUCUGCCCUCAGAGCUCGAGAACAUCUUCGGAUGCAGAGGAGGCAGGCUUCGGUGGCGCGAUAGCACCAACGUCCUCAACCGCCAAUGCAUCCCACCACAUGAUGAUGCCUGAAGAGCCUUGGUUUUUUG [G71A U87G] — lower, -0.439
- GACCAAUCUGCCCUUAGAGCUCGAGAACAUCUUCGGAUGCAGAGGAGGCAGGCUUCGGUGGCGCGAUAGCGCCAACGUCCUCAACCUCCACUGCAUCCCACCACAUGAUGAUGCCUGAAGAGCCUUGGUUUUUUG [C15U A91C] — lower, -2.75
- GACCAAUCUGCCCUCAGAGCUCGAGAACAUCUUCGGAUGCAGAGGGGGCAGGCUUCGGUGGCGCGAUAGCGCCAACGUCCUCAACCUCCAAUGCAUCCCACCACAUGAUGAUGCCUGAAGAGCCUUAGUUUUUUG [A46G G127A] — lower, -1.96
- GUCAAAUCUGCCCUCAGAGCUCGAGAACAUCUUCGGAUGCAGGGGACGCAGGCUUCGGUGGCGCGAUGGCGCCAACGUCCUCAACCUCCAAUGCAUCCCACCACAUGAUGAUACCUGAAGAGCUUUGGUUUUUUG [A2U C4A A43G G47C A68G G113A C124U] — lower, -6.42
- GACCAAUCUGCCUUCAGAGCUCGAGAACAUCUUCGGAUGCAGAGGAGGCAGGCUUCGGUGGCGCGAUAGCUCCAACGGCCUCAACCUCCAAUGCAUCCCACCACAUGAUGAUGCCUGAAGAGCCUUGGUUUUGUG [C13U G71U U78G U133G] — lower, -0.454
- GACCAAUUUGCCCUCAGAGCUCGAGAACAUCUUCGUAUGCAGAGGAGGCAGGCUUUGGUGGCGCGAUAGCGCCAACGUCCUAAACCUCGAAUGCAUCCCACCACAUGAUGAUGCCUGAAGAGCCUUGGUUUUUUG [C8U G36U C56U C82A C89G] — lower, -2.15
- GACCAAUCUGCCCUCAGAGCUCGAGAACAUCUUCGGAUGCAGAGGAGGCAGGCUUCGGUGGCGCGAUAGCACCAACGUCCUCAACCUCCAACGCAUCCCACCACAUGAUGAUGCCUGAAGAGCCUUGGUUUUUUG [G71A U92C] — lower, -2.39
- GACCAAUCUGCCCUCAGAGCUCGAGAACAUCUUCGGUUGCAGAGGUAGCAGGCUUCGGUGGCGCGAUAGCGCCAACGUCCUCAACCUCCAAUGCAUCCCACCACAUGAUGAUGCCUGAAGAGGCUUGGUUUUUUG [A37U A46U G47A C123G] — lower, -1.6
- GACCAAUCUGCCCUCAGAGCUCGAUAACAUCUUCGGAUGCAGAGGAGGCAGGCUUCGGUGGCGCGAUAGCGUCAACGUCCUCAACCUCCAAUGCAUCCCACCACAUGAUGAUGCCUGAAGAGCCUUGGUUUUUUG [G25U C72U] — lower, -6.27
- GACCAAUCUGCCCUCAGAGCUCGAGAACGUCUUCGGAUGCAGAGGAGGCAGGCUUUGGUGGCGCGAUAGCGCCAACGUCCUCAACCUCCAAUGCAUCCCAGCACAUGAUGAUGCCUGAAGAGCCUUGGUUUUUUG [A29G C56U C101G] — lower, -6.01
- GACCAAUCUGCCCUCAGAGCUCGAGAACAUCUUCGGAUGCAGAGGAGGCAGGCUUCGGUGUCGCGAUAGCGCCAACGUCCUCAACCUCCAAUGCAUCCCACCACAUGAAGAUGCCUGAAGAGCCAUGGUUUUUUG [G61U U109A U125A] — lower, -5.58
- GACCAAUCUGCACUCAGAGCUCGAGAACAUCUUCGGAUGCAGAGGAGGCAGGCAUCGGUGGCGCGAUAGCGCCAACGUCGUCAACCUCCAAUGCAUCCCACCACAUGAUGAUGCCUGAAGAGCCUUGGUUUUUUG [C12A U54A C80G] — lower, -4.17
- GACCAAUCUGCCCUCAGAGCUCGAGAACAUCCUCGGAUGCAGAGGAGGCAGGCUUCGGUGGCGCGAUAGCUCCAACGUCCUCAACCUCCAAUGCAUCCCACCACAUGAUGAUGCCUGAAGAGCCUUGGUUUUUUG [U32C G71U] — lower, -1.13
- GACCAAUCUGCCCUCAGAGCUCGAGAACAUCUUCGGAUGCAGACGAGGCAGGCUUCGGUGACGCGAUAGCGCCAACGUCAUCAACCUCCAAUGCAUCCCACCACAUGAUGAUGCCUGAAGAGCCUUGGUUUUUUG [G44C G61A C80A] — lower, -4.34
